These results are taken from patent publication US20230406951A1 (Pfizer, published 2023).

Where a chain is given by its changes, count along the chain named. Names may count otherwise.

Assay [1] has as its target human TNFR2 (human) (UniProt P20333). Kind of assay: cell-based or functional assay.
For assay [2], the target named is T1, human TNFR2 (human, UniProt P20333 23-461).
T1 construct: expressed on the surface of CHO cells; also called HuTNFR2; TNFRSF1B
T1 sequence: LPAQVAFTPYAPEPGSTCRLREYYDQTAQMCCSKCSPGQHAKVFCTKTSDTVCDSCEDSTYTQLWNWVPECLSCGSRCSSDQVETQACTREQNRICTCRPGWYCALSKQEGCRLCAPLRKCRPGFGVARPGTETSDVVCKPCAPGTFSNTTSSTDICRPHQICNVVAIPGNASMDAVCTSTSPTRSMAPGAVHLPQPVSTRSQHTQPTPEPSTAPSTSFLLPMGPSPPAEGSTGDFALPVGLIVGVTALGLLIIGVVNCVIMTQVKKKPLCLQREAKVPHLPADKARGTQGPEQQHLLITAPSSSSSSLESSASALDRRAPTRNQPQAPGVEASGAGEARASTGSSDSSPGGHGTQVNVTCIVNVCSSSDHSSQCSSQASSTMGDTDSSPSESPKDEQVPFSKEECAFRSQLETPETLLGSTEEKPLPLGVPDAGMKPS
The assay can be described thus: binding to human TNFR2 CHO cells, TetraFab format.

Assay [3] deals with T1, human TNFR2. The assay can be described thus: binding to human TNFR2 CHO cells.
For assay [4], the target named is T2, human TNFR2 (human, UniProt P20333 23-461).
T2 construct: Human TNFR2 over-expressed on CHO cells, full length on transduced NF-KB-GFP Jurkat cells, or native on human primary T cells; also called Hu TNFR2; TNFRSF1B
T2 sequence: T1 sequence
Kind of assay: binding to human TNFR2 CHO cells.

In general, EC50 refers to the concentration needed to bring the measured effect to its halfway point. Higher therefore signals lower potency in that assay.

Take “MR2-1 (Hycult Biotech, ref #HM2007) (antibody)”: in assay [1], the EC50 Jurkat assay, With aggregates came out at 0.12 µg/mL; the EC50 Jurkat assay, Without aggregates turned out to be 5.75 µg/mL; the Loss of potency (without against with aggregates) was determined as 50 fold.

B1: TetraFab 2209 (antibody, human IgG1, kappa)
heavy: QVQLVQSGAEVKKPGASVKVSCKVSGFSFPSSGVDWVRQAPGQGLEWLGVTWGVGSTHYNQKFQGRVTITKDTSKSTVYMELSSLRSEDTAVYYCASGEWDEGFVYWGQGTLVTVSSASTKGPSVFPLAPSSKSTSGGTAALGCLVKDYFPEPVTVSWNSGALTSGVHTFPAVLQSSGLYSLSSVVTVPSSSLGTQTYICNVNHKPSNTKVDKKVEPKSCGGGGSQVQLVQSGAEVKKPGASVKVSCKVSGFSFPSSGVDWVRQAPGQGLEWLGVTWGVGSTHYNQKFQGRVTITKDTSKSTVYMELSSLRSEDTAVYYCASGEWDEGFVYWGQGTLVTVSSASTKGPSVFPLAPSSKSTSGGTAALGCLVKDYFPEPVTVSWNSGALTSGVHTFPAVLQSSGLYSLSSVVTVPSSSLGTQTYICNVNHKPSNTKVDKKVEPKSCDKTHTCPPCPAPEAAGAPSVFLFPPKPKDTLMISRTPEVTCVVVDVSHEDPEVKFNWYVDGVEVHNAKTKPREEQYNSTYRVVSVLTVLHQDWLNGKEYKCKVSNKALPAPIEKTISKAKGQPREPQVYTLPPSREEMTKNQVSLTCLVKGFYPSDIAVEWESNGQPENNYKTTPPVLDSDGSFFLYSKLTVDKSRWQQGNVFSCSVMHEALHNHYTQKSLSLSPGK
light: DIQLTQSPSFLSASVGDRVTITCKASQNVGTAVAWYQQKPGKAPKLLIYAASTLQSGVPSRFSGSGSGTEFTLTISSLQPEDFATYYCLQYSSYPLTFGGGTKVEIKRTVAAPSVFIFPPSDEQLKSGVTASVVCLLNNFYPREAKVQWKVDNALQSGNSQESVTEQDSKDSTYSLSSTLTLSKADYEKHKVYACEVTHQGLSSPVTKSFNRGEC
notes: TetraFab; parental heavy chain
In assay [2], B1 gave an EC50 of 0.15 nM.

B2: TetraFab 2084 (antibody)
heavy: B1 heavy with W52R, V54E, W277R, V279E
light: DIQLTQSPSFLSASVGDRVTITCKASQNVGTAVAWYQQKPGKAPKLLIYAASTLQSGVPSRFSGSGSGTEFTLTISSLQPEDFATYYCQQYNSYPFGGGTKVEIKRTVAAPSVFIFPPSDEQLKSGTASVVCLLNNFYPREAKVQWKVDNALQSGNSQESVTEQDSKDSTYSLSSTLTLSKADYEKHKVYACEVTHQGLSSPVTKSFNRGEC
notes: TetraFab
As to B2, the binding result in assay [3] is listed as “no binding”.

B3: TetraFab 2206 (antibody, human IgG1, kappa, name in Kabat numbering)
heavy: B1 heavy
light: DIQLTQSPSFLSASVGDRVTITCKASQNVGTAVAWYQQKPGKAPKLLIYAASTLQSGVPSRFSGSGSGTEFTLTISSLQPEDFATYYCQQYNSYPFGGGTKVEIKRTVAAPSVFIFPPSDEQLKSGVTASVVCLLNNFYPREAKVQWKVDNALQSGNSQESVTEQDSKDSTYSLSSTLTLSKADYEKHKVYACEVTHQGLSSPVTKSFNRGEC
notes: as for B1
In the case of B3, the binding result in assay [3] is “no binding”.

B4: TetraFab 2099 (antibody)
heavy: B1 heavy with W52R, V54E, W100Q, W277R, V279E, W325Q
light: B2 light
notes: TetraFab
With B4, in assay [3], the binding result is given as “no binding”.

B5: TetraFab 2208 (antibody, human IgG1, kappa)
heavy: B1 heavy
light: B1 light with Y91K
notes: as for B1
Take B5: the EC50 in assay [2] was 2.3 nM.

B6: TetraFab 2112 (antibody)
heavy: B1 heavy with W52K, V54Q, W277K, V279Q
light: B2 light with N92Y, Y94T
notes: TetraFab
For the molecule B6, the binding result in assay [3] is on record as “no binding”.

B7: TetraFab 2098 (antibody)
heavy: B1 heavy with W52R, V54E, W100R, W277R, V279E, W325R
light: B2 light
notes: TetraFab
Turning to B7, the binding result in assay [3] is “no binding”.

B8: TetraFab 2207 (antibody, human IgG1, kappa, name in Kabat numbering)
heavy: B1 heavy
light: B3 light with N92Y, Y94T
notes: as for B1
As for B8, the binding result in assay [3] is listed as “no binding”.

B9: TetraFab 2108 (antibody)
heavy: B1 heavy with W52H, V54S, W100S, D101T, W277H, V279S, W325S, D326T
light: B2 light
notes: TetraFab
In the case of B9, the binding result in assay [3] is on record as “no binding”.

B10: TetraFab 2109 (antibody)
heavy: B1 heavy with W52H, V54S, W100H, W277H, V279S, W325H
light: B2 light
notes: TetraFab
Consider B10, for which, in assay [3], the binding result was “no binding”.

B11: TetraFab 2125 (antibody)
heavy: B1 heavy with W52R, V54E, W100S, D101T, W277R, V279E, W325S, D326T
light: B2 light with N92Y, Y94T
notes: TetraFab
For the molecule B11, the binding result in assay [3] is given as “no binding”.

B12: TetraFab 2087 (antibody)
heavy: B1 heavy with W52H, V54S, W277H, V279S
light: B2 light
notes: TetraFab
In the case of B12, in assay [3], the binding result is recorded as “no binding”.

B13: TetraFab 2113 (antibody)
heavy: B1 heavy with W52R, V54E, W277R, V279E
light: B2 light with N92Y, Y94T
notes: TetraFab
In the case of B13, in assay [3], the binding result is recorded as “no binding”.

B14: TetraFab 2118 (antibody)
heavy: B1 heavy with W100H, W325H
light: B2 light with N92Y, Y94T
notes: TetraFab
Turning to B14, in assay [3], the binding result was “no binding”.

B15: TetraFab 2106 (antibody)
heavy: B1 heavy with W52L, V54H, W100R, W277L, V279H, W325R
light: B2 light
notes: TetraFab
In the case of B15, in assay [3], the binding result is “no binding”.

B16: TetraFab 2053 (antibody, human IgG1, kappa)
heavy: B1 heavy
light: B1 light with L89Q
notes: dual Fab heavy chain (outer VH-CH1, G4S linker, inner VH-CH1, human IgG1 Fc) pairing with 4 light chains; also called TF2053
B16 had a concentration for a half-maximal effect (EC50) in assay [2] of 0.7 nM.

B17: TetraFab 2096 (antibody)
heavy: B1 heavy with W52R, V54E, W100S, D101T, W277R, V279E, W325S, D326T
light: B2 light
notes: TetraFab
B17: the binding result in assay [3] is given as “no binding”.

B18: clone 1774 (antibody, V domains shown)
VH: QVQLVQSGAEVKKPGASVKVSCKVSGFSFPSSGVDWVRQAPGQGLEWLGVTWGVGSTHYNQKFQGRVTITKDNSKSTVYMELSSLRSEDTAVYYCASGEWDEGFVYWGQGTLVTVSS
VL: DIQLTQSPSFLSASVGDRVTITCKASQNVGTAVAWYQQKPGKAPKLLIYSASNRYTGVPSRFSGSGSGTEFTLTISSLQPEDFATYYCQQYSSYPLTFGGGTKVEIK
In the case of B18, in assay [4], it took 1.56 nM to reach a half-maximal effect (EC50). This counts as single-digit nanomolar.

B19: IgG 2202 (antibody, name in Kabat numbering, V domains shown)
VH: B18 VH with N73T
VL: DIQLTQSPSFLSASVGDRVTITCKASQNVGTAVAWYQQKPGKAPKLLIYAASTLQSGVPSRFSGSGSGTEFTLTISSLQPEDFATYYCQQYNSYPFGGGTKVEIKR
notes: IgG
For B19, the binding result in assay [3] is given as “no binding”.

B20: clone 1773 (antibody, name in Kabat numbering, V domains shown)
VH: B18 VH
VL: B18 VL with S50A, N53T, R54L, Y55Q, T56S
Molecule B20 showed a concentration for a half-maximal effect (EC50) in assay [4] of 1.13 nM.

B21: IgG 2203 (antibody, name in Kabat numbering, V domains shown)
VH: B18 VH with N73T
VL: B19 VL with N92Y, Y94T
notes: IgG
Take B21: the binding result in assay [3] is “no binding”.

B22: IgG 2002 (antibody, name in Kabat numbering, V domains shown)
VH: B18 VH with W52F, G53Q, V54E, N73T, W100H
VL: B19 VL with N92Y, Y94T
notes: IgG
As for B22, in assay [3], the binding result is recorded as “no binding”.

B23: clone 1766 (antibody, V domains shown)
VH: B18 VH with N73T
VL: B18 VL
Take B23: the EC50 in assay [4] came out at 1.19 nM. In other words, the single-digit nanomolar range.
